Experimental data reported in publication doi:10.1101/701250 (bioRxiv, 2019).
Read-outs that look alike come from different tables or passages of the source.

B3: KIF3A purified from E. coli (natural protein, Mus musculus, UniProt P28741 1-701, looked up)
chain: MPINKSEKPESCDNVKVVVRCRPLNEREKSMCYRQAVSVDEMRGTITVHKTDSSNEPPKTFTFDTVFGPESKQLDVYNLTARPIIDSVLEGYNGTIFAYGQTGTGKTFTMEGVRAVPGLRGVIPNSFAHIFGHIAKAEGDTRFLVRVSYLEIYNEEVRDLLGKDQTQRLEVKERPDVGVYIKDLSAYVVNNADDMDRIMTLGHKNRSVGATNMNEHSSRSHAIFTITIECSEKGVDGNMHVRMGKLHLVDLAGSERQAKTGATGQRLKEATKINLSLSTLGNVISALVDGKSTHVPYRNSKLTRLLQDSLGGNSKTMMCANIGPADYNYDETISTLRYANRAKNIKNKARINEDPKDALLRQFQKEIEELKKKLEEGEEVSGSDISGSEEDDEEGELGEDGEKKKKRRDQAGKKKVSPDKMVEMQAKIDEERKALETKLDMEEEERNKARAELERREKDLLKAQQEHQSLLEKLSALEKKVIVGGVDLLAKAEEQEKLLEESNMELEERRRRAEQLRKELEEKEQERLDIEEKYTSLQEEAQGKTKKLKKVWTMLMAAKSEMADLQQEHQREIEGLLENIRQLSRELRLQMLIIDNFIPQDYQEMIENYVHWNEDIGEWQLKCVAYTGNNMRKQTPVPDKKERDPFEVDLSHVYLAYTEESLRQSLMKLERPRTSKGKARPKMGRRKRSAKPETVIDSLLQ

Experiments:
[1] = target: B3; assay: SEC-MALS
full-length APC-GFP = full-length APC-GFP (Mus musculus, UniProt Q61315 1-2845); assay: MST
[2] = target: the molecule itself
SEC-MALS = target: the molecule itself; assay: SEC-MALS

full-length APC-GFP, sequence (Q61315 whole entry): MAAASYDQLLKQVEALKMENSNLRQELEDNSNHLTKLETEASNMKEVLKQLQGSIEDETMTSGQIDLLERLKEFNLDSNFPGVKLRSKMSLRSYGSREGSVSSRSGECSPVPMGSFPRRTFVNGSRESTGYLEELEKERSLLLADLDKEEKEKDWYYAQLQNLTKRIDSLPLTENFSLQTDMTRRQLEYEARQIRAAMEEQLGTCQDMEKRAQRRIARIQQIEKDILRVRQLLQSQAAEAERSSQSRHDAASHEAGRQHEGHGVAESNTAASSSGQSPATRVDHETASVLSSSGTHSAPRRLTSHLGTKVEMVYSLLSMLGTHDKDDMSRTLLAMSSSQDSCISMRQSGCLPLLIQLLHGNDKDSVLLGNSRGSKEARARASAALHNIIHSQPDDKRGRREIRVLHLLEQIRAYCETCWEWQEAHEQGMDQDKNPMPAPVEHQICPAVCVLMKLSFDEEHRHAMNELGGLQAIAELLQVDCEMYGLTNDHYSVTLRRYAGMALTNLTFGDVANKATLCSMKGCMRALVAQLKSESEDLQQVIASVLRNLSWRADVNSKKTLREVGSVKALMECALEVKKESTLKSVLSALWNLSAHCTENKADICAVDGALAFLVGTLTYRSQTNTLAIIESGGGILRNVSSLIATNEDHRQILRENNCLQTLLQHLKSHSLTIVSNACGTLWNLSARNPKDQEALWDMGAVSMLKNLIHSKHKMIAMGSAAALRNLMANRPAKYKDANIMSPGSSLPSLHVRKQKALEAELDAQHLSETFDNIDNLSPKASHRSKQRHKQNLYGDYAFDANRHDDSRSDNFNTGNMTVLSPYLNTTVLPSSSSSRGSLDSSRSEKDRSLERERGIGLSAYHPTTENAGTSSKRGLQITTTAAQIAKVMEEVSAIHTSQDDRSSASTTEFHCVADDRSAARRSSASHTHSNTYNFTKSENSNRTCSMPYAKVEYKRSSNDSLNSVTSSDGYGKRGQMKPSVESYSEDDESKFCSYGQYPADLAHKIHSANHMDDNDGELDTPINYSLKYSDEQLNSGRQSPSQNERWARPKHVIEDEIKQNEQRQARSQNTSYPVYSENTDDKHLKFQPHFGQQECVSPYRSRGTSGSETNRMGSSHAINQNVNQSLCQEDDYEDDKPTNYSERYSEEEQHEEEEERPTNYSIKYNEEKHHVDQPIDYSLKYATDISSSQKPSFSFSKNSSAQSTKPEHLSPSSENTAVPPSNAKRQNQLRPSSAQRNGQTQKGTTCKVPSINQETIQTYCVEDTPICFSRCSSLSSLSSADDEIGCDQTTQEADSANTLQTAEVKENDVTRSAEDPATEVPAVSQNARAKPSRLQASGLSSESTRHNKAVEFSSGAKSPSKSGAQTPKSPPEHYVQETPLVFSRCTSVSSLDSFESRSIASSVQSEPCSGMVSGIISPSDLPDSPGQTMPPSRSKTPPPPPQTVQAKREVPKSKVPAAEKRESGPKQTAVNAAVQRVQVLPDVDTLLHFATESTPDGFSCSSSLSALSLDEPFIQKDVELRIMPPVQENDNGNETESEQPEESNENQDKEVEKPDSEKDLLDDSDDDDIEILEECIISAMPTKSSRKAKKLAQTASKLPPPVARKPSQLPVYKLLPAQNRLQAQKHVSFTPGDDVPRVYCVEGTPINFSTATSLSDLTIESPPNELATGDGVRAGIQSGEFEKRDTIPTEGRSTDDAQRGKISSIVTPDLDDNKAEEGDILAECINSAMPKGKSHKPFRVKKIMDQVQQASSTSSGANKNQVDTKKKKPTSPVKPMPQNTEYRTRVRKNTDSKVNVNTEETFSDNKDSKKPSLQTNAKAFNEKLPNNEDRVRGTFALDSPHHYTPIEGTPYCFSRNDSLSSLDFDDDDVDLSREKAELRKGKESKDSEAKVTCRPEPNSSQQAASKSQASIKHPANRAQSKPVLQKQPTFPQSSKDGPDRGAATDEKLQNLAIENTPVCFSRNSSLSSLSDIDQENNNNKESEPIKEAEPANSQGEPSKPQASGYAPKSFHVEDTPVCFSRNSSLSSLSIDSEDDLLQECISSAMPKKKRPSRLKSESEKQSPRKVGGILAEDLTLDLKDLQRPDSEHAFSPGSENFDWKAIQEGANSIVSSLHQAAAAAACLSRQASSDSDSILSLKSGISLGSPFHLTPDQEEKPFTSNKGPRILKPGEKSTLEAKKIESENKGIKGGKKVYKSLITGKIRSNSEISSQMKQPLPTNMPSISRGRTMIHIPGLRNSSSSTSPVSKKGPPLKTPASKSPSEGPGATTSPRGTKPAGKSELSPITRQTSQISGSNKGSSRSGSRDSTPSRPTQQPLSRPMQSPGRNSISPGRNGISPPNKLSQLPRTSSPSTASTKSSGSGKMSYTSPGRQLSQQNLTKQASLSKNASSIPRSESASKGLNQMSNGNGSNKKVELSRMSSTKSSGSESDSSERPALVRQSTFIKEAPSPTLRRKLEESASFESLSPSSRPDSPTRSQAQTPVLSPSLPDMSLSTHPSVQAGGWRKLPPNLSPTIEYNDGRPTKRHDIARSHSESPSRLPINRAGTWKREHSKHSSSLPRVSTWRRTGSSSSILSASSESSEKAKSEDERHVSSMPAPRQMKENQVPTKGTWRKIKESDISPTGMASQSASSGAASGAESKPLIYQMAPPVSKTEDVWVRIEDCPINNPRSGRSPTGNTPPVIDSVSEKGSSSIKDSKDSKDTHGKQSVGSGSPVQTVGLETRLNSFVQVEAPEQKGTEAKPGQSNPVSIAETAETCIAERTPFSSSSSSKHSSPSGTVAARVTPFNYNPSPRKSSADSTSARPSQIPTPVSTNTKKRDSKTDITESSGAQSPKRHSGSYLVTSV

B1: KAP3 (separately purified) (natural protein, Mus musculus, UniProt P70188-1 1-793, looked up)
chain: MQGEDARYLKRKVKGGNIDVHPSEKALIVQYEVEATILGEMGDPMLGERKECQKIIRLKSLNANTDITSLARKVVEECKLIHPSKLSEVEQLLYYLQNRRDSLPGKEKKEKSSKPKDPPPFEGMEIDEVANINDMDEYIELLYEDIPDKVRGSALILQLARNPDNLEELLLNETALGALARVLREDWKQSVELATNIIYIFFCFSSFSHFHGLITHYKIGALCMNIIDHELKRHELWQEELSKKKKAVDEDLENQTLRKDYDKTFKKYQGLVVKQEQLLRVALYLLLNLAEDTRTELKMRNKNIVHMLVKALDRDNFELLILVVSFLKKLSIFMENKNDMVEMDIVEKLVKMIPCEHEDLLNITLRLLLNLSFDTGLRNKMVQVGLLPKLTALLGNENYKQIAMCVLYHISMDDRFKSMFAYTDCIPQLMKMLFECSDERIDLELISFCINLAANKRNVQLICEGNGLKMLMKRALKLKDPLLMKMIRNISQHDGPTKNLFIDYVGDLAAQISSDEEEEFVIECLGTLANLTIPDLDWELVLKEYKLVPFLKDKLKPGAAEDDLVLEVVIMIGTVSMDDSCAALLAKSGIIPALIELLNAQQEDDEFVCQIIYVFYQMVFHQATRDVIIKETQAPAYLIDLMHDKNNEIRKVCDNTLDIIAEYDEEWAKKIQSEKFRWHNSQWLEMVESRQLDESEQYLYGDDRIEPYIHEGDILERPDLFYNSDGLITSEGAISPDFFNDFHLQNGDVVGQHAFPGSLGMDGFGQPLGILGRPATAYGFRPDEPYYYSFGSR
For B1, the “stoichiometry N” value [1] was 1 KAP3 per KIF3A dimer and the binding result (full-length APC-GFP) was “binds”.

B2: homodimeric KIF3A-SNAP labelled with Alexa647 or TMR (natural protein, Mus musculus, UniProt P28741 1-701, looked up)
chain: MPINKSEKPESCDNVKVVVRCRPLNEREKSMCYRQAVSVDEMRGTITVHKTDSSNEPPKTFTFDTVFGPESKQLDVYNLTARPIIDSVLEGYNGTIFAYGQTGTGKTFTMEGVRAVPGLRGVIPNSFAHIFGHIAKAEGDTRFLVRVSYLEIYNEEVRDLLGKDQTQRLEVKERPDVGVYIKDLSAYVVNNADDMDRIMTLGHKNRSVGATNMNEHSSRSHAIFTITIECSEKGVDGNMHVRMGKLHLVDLAGSERQAKTGATGQRLKEATKINLSLSTLGNVISALVDGKSTHVPYRNSKLTRLLQDSLGGNSKTMMCANIGPADYNYDETISTLRYANRAKNIKNKARINEDPKDALLRQFQKEIEELKKKLEEGEEVSGSDISGSEEDDEEGELGEDGEKKKKRRDQAGKKKVSPDKMVEMQAKIDEERKALETKLDMEEEERNKARAELERREKDLLKAQQEHQSLLEKLSALEKKVIVGGVDLLAKAEEQEKLLEESNMELEERRRRAEQLRKELEEKEQERLDIEEKYTSLQEEAQGKTKKLKKVWTMLMAAKSEMADLQQEHQREIEGLLENIRQLSRELRLQMLIIDNFIPQDYQEMIENYVHWNEDIGEWQLKCVAYTGNNMRKQTPVPDKKERDPFEVDLSHVYLAYTEESLRQSLMKLERPRTSKGKARPKMGRRKRSAKPETVIDSLLQ
modifications: Alexa647 or TMR on the SNAP tag
With B2 the “stoichiometry N” value [2] was 2.

For B3, the “stoichiometry N” value (SEC-MALS) was 2.
